Source: patent US20140249083A1 (THERATECHNOLOGIES, published 2014)
*1 amine or outer side, *2 acyl side, *3 side chain or, on linkers, in order; H or OH if unused. Primed or numbered codes have the meaning given here. [ ]: non-standard residue; d: D form. The star is where a group is joined. βAsp = O=C(O)[C@H](CC(=O)[*:2])N[*:1]; Met(O) = CS(=O)CC[C@H](N)C(=O)O; Hexenoyl(3E) = CC/C=C/CC(=O)*; Asu′ = not defined here

Target: T1, human GRF receptor (human, UniProt Q02643 23-423)
T1 sequence (looked up): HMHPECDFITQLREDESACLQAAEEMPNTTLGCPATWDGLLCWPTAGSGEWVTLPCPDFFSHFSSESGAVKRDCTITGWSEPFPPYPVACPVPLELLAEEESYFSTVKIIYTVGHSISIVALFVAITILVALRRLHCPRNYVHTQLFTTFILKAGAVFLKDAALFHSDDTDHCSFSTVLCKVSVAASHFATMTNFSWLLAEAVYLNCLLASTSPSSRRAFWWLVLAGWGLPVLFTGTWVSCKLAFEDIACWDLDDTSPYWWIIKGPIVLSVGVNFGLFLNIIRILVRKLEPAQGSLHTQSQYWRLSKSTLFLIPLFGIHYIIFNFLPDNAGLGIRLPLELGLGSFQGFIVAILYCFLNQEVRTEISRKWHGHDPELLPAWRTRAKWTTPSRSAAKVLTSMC
Test: cell-based or functional assay

## {Hexenoyl(3E)}-YA[Asu′]AIFTNSYRKVLGQLSARKLLQDIMSRQQGESNQERGARARL-NH2 (reading uncertain) [TH9507 cyclic form at Asp^3]
  EC50 (nM), alkaline phosphatase reporter gene assay: 0.2 nM
  EMAX (%), alkaline phosphatase reporter gene assay: 95.7%
  SNR (signal to noise ratio), alkaline phosphatase reporter gene assay: 21.3

## {Hexenoyl(3E)}-YADAIFT[βAsp]SYRKVLGQLSARKLLQDIMSRQQGESNQERGARARL-NH2 [TH9507 beta-Asp8]
  EC50 (nM), alkaline phosphatase reporter gene assay: 30 nM
  EC50 fold higher than TH9507, reporter gene assay: 500 fold
  EMAX (%), alkaline phosphatase reporter gene assay: 120%
  SNR (signal to noise ratio), alkaline phosphatase reporter gene assay: 26.9

## {Hexenoyl(3E)}-YADAIFTNSYRKVLGQLSARKLLQDI[Met(O)]SRQQGESNQERGARARL-NH2 [N-Hex-hGRF[1-44]Met[O]27 amide]
  EC50 (nM), alkaline phosphatase reporter gene assay: 0.16 nM

## {Hexenoyl(3E)}-YADAIFTNSYRKVLGQLSARKLLQDIMSRQQGESNQERGARARL-NH2 [[trans-3-hexenoyl]hGHRH (1-44) amide]
  EC50 (nM), alkaline phosphatase reporter gene assay: 0.06 nM

## {Hexenoyl(3E)}-YADAIFTDSYRKVLGQLSARKLLQDIMSRQQGESNQERGARARL-NH2 [TH9507 Asp8]
  EC50 (nM), alkaline phosphatase reporter gene assay: 0.08 nM
  EMAX (%), alkaline phosphatase reporter gene assay: 114%
  SNR (signal to noise ratio), alkaline phosphatase reporter gene assay: 25.3

## {Hexenoyl(3E)}-YA[βAsp]AIFTNSYRKVLGQLSARKLLQDIMSRQQGESNQERGARARL-NH2 [TH9507 beta-Asp3]
  EC50 (nM), alkaline phosphatase reporter gene assay: 4.24 nM
  EMAX (%), alkaline phosphatase reporter gene assay: 116%
